Laboratory results from patent US20140087995A1 (published 2014).
Values belong to the binder of their own block, whether it stands above or below them. Numbered stars: 1 amine (or outer) side, 2 acyl side, 3 side chain; on linkers, the order of the positions; unused ones are H or OH. Bridge positions count the residues as written; N and C are the ends. Side chains are listed from the residue outwards. Ends that are not written are not given here. * marks the point of attachment. C20 diacid = O=C(O)CCCCCCCCCCCCCCCCCCC(=O)*; γGlu = O=C(O)[C@H](CCC(=O)[*:2])N[*:1]; AEEA = NCCOCCOCC(=O)O

Experiments:
[1] = molecular target: T1, human amylin receptor (amylin 3(a) receptor: human calcitonin receptor co-expressed with RAMP-3) (human, UniProt P30988 25-474; O60896 24-148, limits assumed); experiment: cell-based or functional assay
T1 sequence (looked up) 1: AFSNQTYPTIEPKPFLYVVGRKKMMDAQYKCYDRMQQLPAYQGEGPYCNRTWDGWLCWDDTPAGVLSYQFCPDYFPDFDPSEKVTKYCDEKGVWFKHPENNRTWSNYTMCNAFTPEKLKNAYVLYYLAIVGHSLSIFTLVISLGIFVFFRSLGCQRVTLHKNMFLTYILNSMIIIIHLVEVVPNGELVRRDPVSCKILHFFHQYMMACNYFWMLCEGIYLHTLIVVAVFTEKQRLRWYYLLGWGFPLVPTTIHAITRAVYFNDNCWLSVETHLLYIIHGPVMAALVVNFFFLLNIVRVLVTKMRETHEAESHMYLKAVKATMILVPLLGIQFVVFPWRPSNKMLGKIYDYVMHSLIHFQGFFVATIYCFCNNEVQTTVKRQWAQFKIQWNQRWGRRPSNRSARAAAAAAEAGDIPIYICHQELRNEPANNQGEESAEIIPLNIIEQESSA
T1 sequence (looked up) 2: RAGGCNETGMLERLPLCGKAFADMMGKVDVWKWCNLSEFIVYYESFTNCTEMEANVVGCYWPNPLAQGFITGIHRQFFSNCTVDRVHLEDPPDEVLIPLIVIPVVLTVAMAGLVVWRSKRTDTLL

[2] = molecular target: T2, human calcitonin receptor (human, UniProt P30988 25-474); experiment: cell-based or functional assay
T2 sequence (looked up): T1 sequence (looked up) 1

B1: N^ε1-[2-[2-[2-[[(4S)-4-carboxy-4-(19-carboxynonadecanoylamino)butanoyl]amino]ethoxy]ethoxy]acetyl]-[Arg17,Pro21,Pro27,Arg34]-h-amylin (peptide)
peptide: K([AEEA-γGlu-C20 diacid])CNTATCATQRLANFLRHSSPNFGAIPSSTNVGRNTY-NH2
modifications: disulfide 2-7; N-terminus assumed
SMILES: CC[C@H](C)[C@H](NC(=O)[C@H](C)NC(=O)CNC(=O)[C@H](Cc1ccccc1)NC(=O)[C@H](CC(N)=O)NC(=O)[C@@H]1CCCN1C(=O)[C@H](CO)NC(=O)[C@H](CO)NC(=O)[C@H](Cc1c[nH]cn1)NC(=O)[C@H](CCCNC(=N)N)NC(=O)[C@H](CC(C)C)NC(=O)[C@H](Cc1ccccc1)NC(=O)[C@H](CC(N)=O)NC(=O)[C@H](C)NC(=O)[C@H](CC(C)C)NC(=O)[C@H](CCCNC(=N)N)NC(=O)[C@H](CCC(N)=O)NC(=O)[C@@H](NC(=O)[C@H](C)NC(=O)[C@@H]1CSSC[C@H](NC(=O)[C@@H](N)CCCCNC(=O)COCCOCCNC(=O)CC[C@H](NC(=O)CCCCCCCCCCCCCCCCCCC(=O)O)C(=O)O)C(=O)N[C@@H](CC(N)=O)C(=O)N[C@@H]([C@@H](C)O)C(=O)N[C@@H](C)C(=O)N[C@@H]([C@@H](C)O)C(=O)N1)[C@@H](C)O)C(=O)N1CCC[C@H]1C(=O)N[C@@H](CO)C(=O)N[C@@H](CO)C(=O)N[C@H](C(=O)N[C@@H](CC(N)=O)C(=O)N[C@H](C(=O)NCC(=O)N[C@@H](CCCNC(=N)N)C(=O)N[C@@H](CC(N)=O)C(=O)N[C@H](C(=O)N[C@@H](Cc1ccc(O)cc1)C(N)=O)[C@@H](C)O)C(C)C)[C@@H](C)O
notes: also called compound 78
hAmylin-R funct. EC50 [1]: 0.316 nM | hCTR funct. EC50 [2]: 8.17 nM

B2: N^ε1-[2-[2-[2-[[(4S)-4-carboxy-4-(19-carboxynonadecanoylamino)butanoyl]amino]ethoxy]ethoxy]acetyl]-[Arg17,Pro21,Pro27,His34]-h-amylin (peptide)
peptide: K([AEEA-γGlu-C20 diacid])CNTATCATQRLANFLRHSSPNFGAIPSSTNVGHNTY-NH2
modifications: disulfide 2-7; N-terminus assumed
SMILES: CC[C@H](C)[C@H](NC(=O)[C@H](C)NC(=O)CNC(=O)[C@H](Cc1ccccc1)NC(=O)[C@H](CC(N)=O)NC(=O)[C@@H]1CCCN1C(=O)[C@H](CO)NC(=O)[C@H](CO)NC(=O)[C@H](Cc1c[nH]cn1)NC(=O)[C@H](CCCNC(=N)N)NC(=O)[C@H](CC(C)C)NC(=O)[C@H](Cc1ccccc1)NC(=O)[C@H](CC(N)=O)NC(=O)[C@H](C)NC(=O)[C@H](CC(C)C)NC(=O)[C@H](CCCNC(=N)N)NC(=O)[C@H](CCC(N)=O)NC(=O)[C@@H](NC(=O)[C@H](C)NC(=O)[C@@H]1CSSC[C@H](NC(=O)[C@@H](N)CCCCNC(=O)COCCOCCNC(=O)CC[C@H](NC(=O)CCCCCCCCCCCCCCCCCCC(=O)O)C(=O)O)C(=O)N[C@@H](CC(N)=O)C(=O)N[C@@H]([C@@H](C)O)C(=O)N[C@@H](C)C(=O)N[C@@H]([C@@H](C)O)C(=O)N1)[C@@H](C)O)C(=O)N1CCC[C@H]1C(=O)N[C@@H](CO)C(=O)N[C@@H](CO)C(=O)N[C@H](C(=O)N[C@@H](CC(N)=O)C(=O)N[C@H](C(=O)NCC(=O)N[C@@H](Cc1c[nH]cn1)C(=O)N[C@@H](CC(N)=O)C(=O)N[C@H](C(=O)N[C@@H](Cc1ccc(O)cc1)C(N)=O)[C@@H](C)O)C(C)C)[C@@H](C)O
notes: also called compound 76
hAmylin-R funct. EC50 [1]: 0.297 nM | hCTR funct. EC50 [2]: 7.37 nM

Next, values leading:

hAmylin-R funct. EC50 [1]: 0.047 nM | hCTR funct. EC50 [2]: 1.03 nM
B3: N^ε1-[2-[2-[2-[[(4S)-4-carboxy-4-(19-carboxynonadecanoylamino)butanoyl]amino]ethoxy]ethoxy]acetyl]-[Arg17,Pro21,Pro27,Pro34,His35]-h-amylin (peptide)
peptide: K([AEEA-γGlu-C20 diacid])CNTATCATQRLANFLRHSSPNFGAIPSSTNVGPHTY-NH2
modifications: disulfide 2-7; N-terminus assumed
SMILES: CC[C@H](C)[C@H](NC(=O)[C@H](C)NC(=O)CNC(=O)[C@H](Cc1ccccc1)NC(=O)[C@H](CC(N)=O)NC(=O)[C@@H]1CCCN1C(=O)[C@H](CO)NC(=O)[C@H](CO)NC(=O)[C@H](Cc1c[nH]cn1)NC(=O)[C@H](CCCNC(=N)N)NC(=O)[C@H](CC(C)C)NC(=O)[C@H](Cc1ccccc1)NC(=O)[C@H](CC(N)=O)NC(=O)[C@H](C)NC(=O)[C@H](CC(C)C)NC(=O)[C@H](CCCNC(=N)N)NC(=O)[C@H](CCC(N)=O)NC(=O)[C@@H](NC(=O)[C@H](C)NC(=O)[C@@H]1CSSC[C@H](NC(=O)[C@@H](N)CCCCNC(=O)COCCOCCNC(=O)CC[C@H](NC(=O)CCCCCCCCCCCCCCCCCCC(=O)O)C(=O)O)C(=O)N[C@@H](CC(N)=O)C(=O)N[C@@H]([C@@H](C)O)C(=O)N[C@@H](C)C(=O)N[C@@H]([C@@H](C)O)C(=O)N1)[C@@H](C)O)C(=O)N1CCC[C@H]1C(=O)N[C@@H](CO)C(=O)N[C@@H](CO)C(=O)N[C@H](C(=O)N[C@@H](CC(N)=O)C(=O)N[C@H](C(=O)NCC(=O)N1CCC[C@H]1C(=O)N[C@@H](Cc1c[nH]cn1)C(=O)N[C@H](C(=O)N[C@@H](Cc1ccc(O)cc1)C(N)=O)[C@@H](C)O)C(C)C)[C@@H](C)O
notes: also called compound 58

hAmylin-R funct. EC50 [1]: 0.102 nM | hCTR funct. EC50 [2]: 0.506 nM
B4: N^ε1-[2-[2-[2-[[(4S)-4-carboxy-4-(19-carboxynonadecanoylamino)butanoyl]amino]ethoxy]ethoxy]acetyl]-[Arg17,Pro21,Pro27,Pro29,Pro34]-h-amylin (peptide)
peptide: K([AEEA-γGlu-C20 diacid])CNTATCATQRLANFLRHSSPNFGAIPSPTNVGPNTY-NH2
modifications: disulfide 2-7; N-terminus assumed
SMILES: CC[C@H](C)[C@H](NC(=O)[C@H](C)NC(=O)CNC(=O)[C@H](Cc1ccccc1)NC(=O)[C@H](CC(N)=O)NC(=O)[C@@H]1CCCN1C(=O)[C@H](CO)NC(=O)[C@H](CO)NC(=O)[C@H](Cc1c[nH]cn1)NC(=O)[C@H](CCCNC(=N)N)NC(=O)[C@H](CC(C)C)NC(=O)[C@H](Cc1ccccc1)NC(=O)[C@H](CC(N)=O)NC(=O)[C@H](C)NC(=O)[C@H](CC(C)C)NC(=O)[C@H](CCCNC(=N)N)NC(=O)[C@H](CCC(N)=O)NC(=O)[C@@H](NC(=O)[C@H](C)NC(=O)[C@@H]1CSSC[C@H](NC(=O)[C@@H](N)CCCCNC(=O)COCCOCCNC(=O)CC[C@H](NC(=O)CCCCCCCCCCCCCCCCCCC(=O)O)C(=O)O)C(=O)N[C@@H](CC(N)=O)C(=O)N[C@@H]([C@@H](C)O)C(=O)N[C@@H](C)C(=O)N[C@@H]([C@@H](C)O)C(=O)N1)[C@@H](C)O)C(=O)N1CCC[C@H]1C(=O)N[C@@H](CO)C(=O)N1CCC[C@H]1C(=O)N[C@H](C(=O)N[C@@H](CC(N)=O)C(=O)N[C@H](C(=O)NCC(=O)N1CCC[C@H]1C(=O)N[C@@H](CC(N)=O)C(=O)N[C@H](C(=O)N[C@@H](Cc1ccc(O)cc1)C(N)=O)[C@@H](C)O)C(C)C)[C@@H](C)O
notes: also called compound 56

hAmylin-R funct. EC50 [1]: 0.089 nM | hCTR funct. EC50 [2]: 3.12 nM
B5: N^ε1-[2-[2-[2-[[(4S)-4-carboxy-4-(19-carboxynonadecanoylamino)butanoyl]amino]ethoxy]ethoxy]acetyl]-[Arg17,Pro21,Pro27,Pro31,His35]-h-amylin (peptide)
peptide: K([AEEA-γGlu-C20 diacid])CNTATCATQRLANFLRHSSPNFGAIPSSTPVGSHTY-NH2
modifications: disulfide 2-7; N-terminus assumed
SMILES: CC[C@H](C)[C@H](NC(=O)[C@H](C)NC(=O)CNC(=O)[C@H](Cc1ccccc1)NC(=O)[C@H](CC(N)=O)NC(=O)[C@@H]1CCCN1C(=O)[C@H](CO)NC(=O)[C@H](CO)NC(=O)[C@H](Cc1c[nH]cn1)NC(=O)[C@H](CCCNC(=N)N)NC(=O)[C@H](CC(C)C)NC(=O)[C@H](Cc1ccccc1)NC(=O)[C@H](CC(N)=O)NC(=O)[C@H](C)NC(=O)[C@H](CC(C)C)NC(=O)[C@H](CCCNC(=N)N)NC(=O)[C@H](CCC(N)=O)NC(=O)[C@@H](NC(=O)[C@H](C)NC(=O)[C@@H]1CSSC[C@H](NC(=O)[C@@H](N)CCCCNC(=O)COCCOCCNC(=O)CC[C@H](NC(=O)CCCCCCCCCCCCCCCCCCC(=O)O)C(=O)O)C(=O)N[C@@H](CC(N)=O)C(=O)N[C@@H]([C@@H](C)O)C(=O)N[C@@H](C)C(=O)N[C@@H]([C@@H](C)O)C(=O)N1)[C@@H](C)O)C(=O)N1CCC[C@H]1C(=O)N[C@@H](CO)C(=O)N[C@@H](CO)C(=O)N[C@H](C(=O)N1CCC[C@H]1C(=O)N[C@H](C(=O)NCC(=O)N[C@@H](CO)C(=O)N[C@@H](Cc1c[nH]cn1)C(=O)N[C@H](C(=O)N[C@@H](Cc1ccc(O)cc1)C(N)=O)[C@@H](C)O)C(C)C)[C@@H](C)O
notes: also called compound 57

hAmylin-R funct. EC50 [1]: 0.068 nM | hCTR funct. EC50 [2]: 0.731 nM
B6: N^ε1-[2-[2-[2-[[(4S)-4-carboxy-4-(19-carboxynonadecanoylamino)butanoyl]amino]ethoxy]ethoxy]acetyl]-[Arg17,Pro21,Pro27,Pro28,Pro34]-h-amylin (peptide)
peptide: K([AEEA-γGlu-C20 diacid])CNTATCATQRLANFLRHSSPNFGAIPPSTNVGPNTY-NH2
modifications: disulfide 2-7; N-terminus assumed
SMILES: CC[C@H](C)[C@H](NC(=O)[C@H](C)NC(=O)CNC(=O)[C@H](Cc1ccccc1)NC(=O)[C@H](CC(N)=O)NC(=O)[C@@H]1CCCN1C(=O)[C@H](CO)NC(=O)[C@H](CO)NC(=O)[C@H](Cc1c[nH]cn1)NC(=O)[C@H](CCCNC(=N)N)NC(=O)[C@H](CC(C)C)NC(=O)[C@H](Cc1ccccc1)NC(=O)[C@H](CC(N)=O)NC(=O)[C@H](C)NC(=O)[C@H](CC(C)C)NC(=O)[C@H](CCCNC(=N)N)NC(=O)[C@H](CCC(N)=O)NC(=O)[C@@H](NC(=O)[C@H](C)NC(=O)[C@@H]1CSSC[C@H](NC(=O)[C@@H](N)CCCCNC(=O)COCCOCCNC(=O)CC[C@H](NC(=O)CCCCCCCCCCCCCCCCCCC(=O)O)C(=O)O)C(=O)N[C@@H](CC(N)=O)C(=O)N[C@@H]([C@@H](C)O)C(=O)N[C@@H](C)C(=O)N[C@@H]([C@@H](C)O)C(=O)N1)[C@@H](C)O)C(=O)N1CCC[C@H]1C(=O)N1CCC[C@H]1C(=O)N[C@@H](CO)C(=O)N[C@H](C(=O)N[C@@H](CC(N)=O)C(=O)N[C@H](C(=O)NCC(=O)N1CCC[C@H]1C(=O)N[C@@H](CC(N)=O)C(=O)N[C@H](C(=O)N[C@@H](Cc1ccc(O)cc1)C(N)=O)[C@@H](C)O)C(C)C)[C@@H](C)O
notes: also called compound 55
